T1: human TM4SF1 (transmembrane-4 L six family member-1) on HUVEC cells (UniProt P30408 1-202)
T1 chain: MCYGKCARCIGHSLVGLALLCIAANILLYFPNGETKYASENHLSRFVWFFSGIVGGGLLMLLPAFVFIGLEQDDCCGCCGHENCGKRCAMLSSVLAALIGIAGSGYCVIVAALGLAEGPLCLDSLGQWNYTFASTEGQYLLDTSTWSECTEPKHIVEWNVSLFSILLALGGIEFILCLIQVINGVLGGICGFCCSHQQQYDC


Columns and labels:
[1] = in vivo; cited from earlier work
[2] = metabolite of trastuzumab emtansine (Kadcyla); every 2 weeks; cited from earlier work
HUVEC (endothelial cell) = experiment: In vitro cell proliferation inhibition (killing) assay, HUVEC; format: cell-based, human; details: 5 days incubation
Procedure: Cells are incubated with antibody conjugate at various concentrations. The concentrations evaluated include a control, and five-fold dilution starting from 333.335 nM (333.335 nM, 66.667 nM, 13.334 nM, 2.667 nM, 0.533 nM (533.3360 pM), 106.6672 pM, 21.3334 pM, 4.2667 pM. Briefly, cells are seeded into 96-well plates a day before the antibody conjugates are added, whereupon cell viability is measured by PrestoBlue (ThermoFisher Scientific) through a plate reader (Varioskan™ LUX multimode microplate reader) five days after treatment with serial dilutions of the antibody conjugates. Cells are treated with media only or isotype matched control antibodies, as a negative control. The EC50 values are generated via GraphPad.
The effects of antibody drug-conjugates (drug to antibody ratio (DAR) varying from 1.8 to 4.2) containing a drug (maytansine) were assessed in cultured mouse (MS1) and human (HUVEC, A549, MiaPaCa2 and SKOV3) cells. Characteristics of the Exemplary Antibodies 1-5, each of which contains human IgG1 constant region with YTEC mutation, can be found in Table 3A. Cells were incubated for 5 days with the antibody drug conjugate before assessing cell viability on day 5.

[3] = target: T1, human TM4SF1 (transmembrane-4 L six …); experiment: flow cytometry cell binding; HUVEC cells
[4] = Hydrophobicity by hydrophobic interaction chromatography (HIC); format: physicochemical; set-up: unit not given here; details: for Hydrophobicity (HIC), Average: average of 3 runs
Procedure: The hydrophobicity of exemplary anti-TM4SF1 antibodies, and their Fc mutation containing variants were assessed in this study, using hydrophobic interaction chromatography. The tested antibodies were AGX-A07 (the “wt,” “C,” and “YTEC”); MS (the “wt,” “C,” and “YTEC”). An anti-Her2 antibody with an Fc mutation was used as a control. Both in case of AGX-A07 and the murine surrogate anti-TM4SF1 antibody, it was observed that the hydrophobicity increased with the “C” and “YTEC” mutations.

Row | Molecule | EC50 [3] | Hydrophobicity (HIC), Run 1 [4] | Hydrophobicity (HIC), Run 2 [4] | Hydrophobicity (HIC), Run 3 [4] | Hydrophobicity (HIC), Average [4] | other results
1 | COc1ccc(/C=C\c2cc(OC)c(OC)c(OC)c2)cc1OP(=O)(O)O [CA4P, Combretastatin] | – | – | – | – | – | Patients who experienced heart attacks while being treated [1]: seven
2 | COc1cc2cc(c1Cl)N(C)C(=O)CC(O)C1(C)OC1C(C)C1CC(O)(NC(=O)O1)C(OC)/C=C/C=C(\C)C2 (stereo not drawn) [Maytansinol, maytansinol] | – | – | – | – | – | Found in plasma [2]: 7%
3 | BrAc-Galactose-Sar-N-Me-Alanine-DM1 [Free LP] | – | – | – | – | – | EC50 (HUVEC (endothelial cell)): 906 nM
4 | AGX-A07 variant comprising Fc region mutation N297C (antibody, V domains shown) VH: QIQLVQSGPELKKPGETVKISCKASGYTFTNYGVKWVKQAPGKDLKWMGWINTYTGNPIYAADFKGRFAFSLETSASTAFLQINNLKNEDTATYFCVRFQYGDYRYFDVWGAGTTVTVSS VL: QIILSQSPAILSASPGEKVTMTCRANSGISFINWYQQKPGSSPKPWIYGTANLASGVPARFGGSGSGTSYSLTISRVEAEDAATYYCQQWSSNPLTFGAGTKLELR | 2.3 nM | – | – | – | – | –
5 | A07-YTEC: AGX-A07 with N297C in combination with M252Y, S254T, and T256E (the “YTEC” variant) (antibody, V domains shown) VH: QIQLVQSGPELKKPGETVKISCKASGYTFTNYGVKWVKQAPGKDLKWMGWINTYTGNPIYAADFKGRFAFSLETSASTAFLQINNLKNEDTATYFCVRFQYGDYRYFDVWGAGTTVTVSS VL: QIILSQSPAILSASPGEKVTMTCRANSGISFINWYQQKPGSSPKPWIYGTANLASGVPARFGGSGSGTSYSLTISRVEAEDAATYYCQQWSSNPLTFGAGTKLELR | – | 5.781 | 5.77 | 5.888 | 5.81 | –
6 | AGX-A07 variant comprising Fc region mutations N297C, M252Y, S254T and T256E (antibody, V domains shown) VH: QIQLVQSGPELKKPGETVKISCKASGYTFTNYGVKWVKQAPGKDLKWMGWINTYTGNPIYAADFKGRFAFSLETSASTAFLQINNLKNEDTATYFCVRFQYGDYRYFDVWGAGTTVTVSS VL: QIILSQSPAILSASPGEKVTMTCRANSGISFINWYQQKPGSSPKPWIYGTANLASGVPARFGGSGSGTSYSLTISRVEAEDAATYYCQQWSSNPLTFGAGTKLELR | 1.75 nM | – | – | – | – | –
7 | AGX-A07 anti-TM4SF1 antibody (without Fc region mutations) (antibody, V domains shown) VH: QIQLVQSGPELKKPGETVKISCKASGYTFTNYGVKWVKQAPGKDLKWMGWINTYTGNPIYAADFKGRFAFSLETSASTAFLQINNLKNEDTATYFCVRFQYGDYRYFDVWGAGTTVTVSS VL: QIILSQSPAILSASPGEKVTMTCRANSGISFINWYQQKPGSSPKPWIYGTANLASGVPARFGGSGSGTSYSLTISRVEAEDAATYYCQQWSSNPLTFGAGTKLELR | 2.16 nM | – | – | – | – | –
8 | A07C: AGX-A07 anti-TM4SF1 antibody with Fc region mutation N297C (the “C” variant) (antibody, V domains shown) VH: QIQLVQSGPELKKPGETVKISCKASGYTFTNYGVKWVKQAPGKDLKWMGWINTYTGNPIYAADFKGRFAFSLETSASTAFLQINNLKNEDTATYFCVRFQYGDYRYFDVWGAGTTVTVSS VL: QIILSQSPAILSASPGEKVTMTCRANSGISFINWYQQKPGSSPKPWIYGTANLASGVPARFGGSGSGTSYSLTISRVEAEDAATYYCQQWSSNPLTFGAGTKLELR | – | 5.614 | 5.591 | 5.606 | 5.60 | –
9 | A07-wt: AGX-A07 anti-TM4SF1 antibody without Fc region mutations (antibody, V domains shown) VH: QIQLVQSGPELKKPGETVKISCKASGYTFTNYGVKWVKQAPGKDLKWMGWINTYTGNPIYAADFKGRFAFSLETSASTAFLQINNLKNEDTATYFCVRFQYGDYRYFDVWGAGTTVTVSS VL: QIILSQSPAILSASPGEKVTMTCRANSGISFINWYQQKPGSSPKPWIYGTANLASGVPARFGGSGSGTSYSLTISRVEAEDAATYYCQQWSSNPLTFGAGTKLELR | – | 5.547 | 5.523 | 5.568 | 5.55 | –

Reference: patent US20250152730A1, “ANTI-TM4SF1 ANTIBODY-DRUG CONJUGATES COMPRISING CLEAVABLE LINKERS AND METHODS OF USING SAME” (Angiex, Inc., priority 2022, published 2025)
